Data: US8283126B2, “Voltage sensor domains of voltage-dependent ion channel proteins and uses thereof” (The Rockefeller University, priority 2003, dated 2012)

Assays:
KvAP channel = target: T1, KvAP channel (Aeropyrum pernix, UniProt Q9YDF8); experiment: Electrophysiological assay of KvAP channels reconstituted into planar lipid bilayers; type: biochemical
T1 construct: made in house; host or cells: Escherichia coli
T1 sequence (Q9YDF8 14-295 limits assumed): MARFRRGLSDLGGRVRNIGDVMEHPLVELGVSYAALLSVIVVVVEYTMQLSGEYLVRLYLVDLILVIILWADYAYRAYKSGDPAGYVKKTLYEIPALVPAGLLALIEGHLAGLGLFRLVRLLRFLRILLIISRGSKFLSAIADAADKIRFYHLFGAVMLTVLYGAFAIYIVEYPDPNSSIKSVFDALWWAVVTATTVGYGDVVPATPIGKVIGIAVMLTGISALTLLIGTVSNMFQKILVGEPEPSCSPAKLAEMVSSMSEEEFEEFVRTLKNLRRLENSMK
Description: KvAP channels were expressed in Escherichia coli, extracted with decylmaltoside, purified and reconstituted into planar lipid bilayers of 1-palmitoyl-2-oleoyl-phosphotidylglycerol (POPG) and 1-palmitoyl-2-oleoyl-phosphotidylethanolamine (POPE) for functional studies.
To examine the structural similarity of KvAP to eukaryotic K^+ channel pores, the ability of a small protein toxin from scorpion venom to inhibit the KvAP channel was examined.
To determine the orientation of channels incorporated into planar lipid bilayers, we used CTX, which causes inhibition by binding only to the extracellular side. KvAP channels open in response to membrane depolarization (e.g., when the voltage of the CTX-insensitive (intracellular) side of the membrane is made positive relative to the CTX-sensitive (extracellular) side. KvAP channels are strongly voltage-dependent, opening as a function of membrane voltage, similar to Shaker and other eukaryotic neuronal Kv channels.
The isolate voltage sensor immobilized to a resin in the column efficiently purifies toxins from tarantula venom (FIG. 3A).

[1] = target: T2, isolated voltage sensor domain (S1-S4) of KvAP (Aeropyrum pernix, UniProt Q9YDF8); experiment: Binding of toxins to isolated voltage sensor domain immobilized on Co2+ affinity column, reverse phase HPLC of eluate; settings: voltage sensor domain on Co2+ resin column versus control column without domain; elution with 400 mM imidazole
T2 construct: encoding Met1 to Lys147 was cloned into a pQE60 expression vector; made in house; host or cells: E. coli XL1-Blue
T2 sequence (Q9YDF8 with tags, fused parts or gaps): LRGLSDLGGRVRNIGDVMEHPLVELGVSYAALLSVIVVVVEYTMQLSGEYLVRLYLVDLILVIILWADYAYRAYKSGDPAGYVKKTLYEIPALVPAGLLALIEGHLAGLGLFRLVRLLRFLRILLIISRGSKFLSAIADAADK
Protocol: Isolated voltage sensor was expressed and purified according to Example 5. To generate the voltage sensor domain column for isolation of toxins, 0.1 ml of Co^2+ resin was washed with water and then equilibrated with Buffer A (20 mM Tris pH 8.0, 100 mM KCl, and 10 mM DM) in an eppendorf tube by 3-4 rounds of centrifugation (500 rpm) to collect resin, careful removal of the supernatant with a pipette and resuspension of the resin in either 1 ml of water or 0.4 ml of Buffer A.
Approximately 2 mg of voltage sensor domain was added to the equilibrated resin. The resin and voltage sensor domain protein were incubated for ˜15 minutes. The resin was then applied to a micro chromatography column (Biorad). Samples of the voltage sensor domain prior to addition to the resin and the flow through after addition of resin to the column was kept and later run on an SDS gel to ensure that an excess of protein has been added to the resin and saturated with protein. […]
Remaining protein was eluted from both columns with 0.1 ml of Buffer A containing 400 mM imidazole and reduced with 50 mM DTT at 37° C. for 2 hours to improve separation by reverse phase high performance liquid chromatography (HPLC). […] Peaks are collected and analyzed by MALDI-TOF mass spectrometry focusing on the low molecular weight range (˜800-10,000 Da).

Row | Substance | inhibition of KvAP channel currents (KvAP channel; currents elicited by a +100 mV depolarization) | binding to the isolated voltage sensor domain [1] | Kd (KvAP channel; KvAP channel in planar lipid bilayers, read-out: dissociation constant (Kd) for inhibition of the KvAP channel)
1 | VSTX1 (ECGKFMWKCKNSNDCCKDLVCSSRWKWCVLASPF) | inhibits KvAP channel currents | binds to the domain | –
2 | charybdotoxin [CTX, reference compound] | – | – | ~400 µM
